# Measured values published in patent US20090105116A1.
# What was measured:
# [1] = target: P3182, Bbs-R-(D-Pip)-Gly-Glu-Gln-Lys-Leu-Ile-Ser-Glu-Glu-Asp-Leu-Gly-Asp-Phe-Glu-Glu-Ile-Pro-Glu-Glu-Tyr-Leu-Gln; assay: cell-based or functional assay
# human α-thrombin (human) [2] = target: human α-thrombin (human) (UniProt P00734); assay: cell-based or functional assay
# human α-thrombin (human) [3] = target: human α-thrombin (human) (UniProt P00734); assay: amidolytic assay with chromogenic substrate S-2238, Lineweaver-Burk, 25° C.
# Sequence of P3182, Bbs-R-(D-Pip)-Gly-Glu-Gln-Lys-Leu-Ile-Ser-Glu-Glu-Asp-Leu-Gly-Asp-Phe-Glu-Glu-Ile-Pro-Glu-Glu-Tyr-Leu-Gln (peptide, as listed by the source, form in doubt): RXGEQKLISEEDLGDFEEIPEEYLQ
substance,measurement,setting,value
anti-c-myc antibody 9E10 (Sigma),"clotting onset time with 150 nM peptide, 0.6 nM thrombin and 1.2 µM antibody",[1],230 s
"P3172-P3165, disulfide-linked Bbs-Arg-(D-Pip)-Gly-Cys...Cys-(Gly-Ser)8-Gly-Asp-Phe-Glu-Glu-Ile-Pro-Glu-Glu-Tyr-Leu-Gln (peptide)","IC50, nM (37° C.), fibrinogen clotting assay",human α-thrombin (human) [2],1.1 nM
"P3291, Bbs-Arg-dPip-Gly-Arg-Lys-Ser-Leu-Thr-Ile-Tyr-Ala-Gln-Val-Gln-Lys-Gly-Asp-Phe-Glu-Glu-Ile-Pro-Glu-Glu-Tyr-Leu-Gln (peptide)","IC50, nM, fibrinogen clotting assay (the text says 25° C.)",human α-thrombin (human) [2],7 nM
"P3170, Bbs-R-(D-Pip)-Gly-(Ser-Pro-His-Tyr(P)-Glu-Lys-Val-Ser-Gly)-Asp-Phe-Glu-Glu-Ile-Pro-Glu-Glu-Tyr-Leu-Gln (peptide)","IC50, nM (25° C.), fibrinogen clotting assay",human α-thrombin (human) [2],0.7 nM
same,Ki,human α-thrombin (human) [3],1.5 nM
"P3162, Bbs-R-(D-Pip)-Gly-(Ser-Pro-His-Tyr(P)-Glu-Lys-Val-Ser-Gly)2-Asp-Phe-Glu-Glu-Ile-Pro-Glu-Glu-Tyr-Leu-Gln (peptide)","IC50, nM (25° C.), fibrinogen clotting assay",human α-thrombin (human) [2],19 nM
